Earlier results on 1 substance are cited in article PMC3773255.

pKd: −log10 of the molar value.

This series concerns the target E-cadherin EC1-2 (UniProt P12830).

As for E-cadherin EC1-2 (from UniProt P12830), the pKd is 4.01.
